# Reference: US20190284262A1 (Memorial Sloan Kettering, published 2019)
# Experiments:
# [1] = molecular target: T1, R3 (RHAMM-R3) peptide/HLA-A*02:01 complex on T2 cells (human); assay: flow cytometry, phage on T2 + R3 peptide (as the table names the samples); secondary only 109, unstained 80.9
# T1 construct: Control target of the phage staining of T2 cells; also called T2 cells pulsed with R3 peptide; RHAMM 3 (R3)
# [2] = molecular target: T2, HLA-A*02:01 on T2 cells alone (no peptide added) (human); assay: flow cytometry, phage on T2 without peptide
# T2 construct: TAP-deficient T2 cells without pulsed peptide; negative control target, and the HLA molecule whose stabilisation by peptides is read in the T2 stabilization assay; also called HLA-A*02 molecule; HLA-A2 molecule
# [3] = molecular target: T3, 017-mut9 peptide (…)/HLA-A*02:01 complex on T2 cells (human); assay: flow cytometry, phage on peptide-loaded T2 cells
# T3 construct: Alanine mutant at position 9
# [4] = molecular target: T4, 017-mut7 peptide (…)/HLA-A*02:01 complex on T2 cells (human); assay: flow cytometry, phage on peptide-loaded T2 cells
# T4 construct: Alanine mutant at position 7
# [5] = molecular target: T5, 017-mut3 peptide (…)/HLA-A*02:01 complex on T2 cells (human); assay: flow cytometry, phage on peptide-loaded T2 cells
# T5 construct: Alanine mutant at position 3
# [6] = molecular target: T6, Foxp3-7 peptide/HLA-A*02:01 complex on the cell surface (human); assay: flow cytometry, phage on peptide-loaded T2 cells
# T6 construct: also called Foxp3-7/HLA-A2 complex
# [7] = molecular target: T7, 017-mut1 peptide (…)/HLA-A*02:01 complex on T2 cells (human); assay: flow cytometry, phage on peptide-loaded T2 cells
# T7 construct: Alanine mutant of Foxp3-7 at position 1, pulsed onto T2 cells; also called EXT017-mut1
# [8] = molecular target: T8, 017-mut5 peptide (…)/HLA-A*02:01 complex on T2 cells (human); assay: flow cytometry, phage on peptide-loaded T2 cells
# T8 construct: Alanine mutant at position 5
# [9] = molecular target: T9, 017-mut8 peptide (…)/HLA-A*02:01 complex on T2 cells (human); assay: flow cytometry, phage on peptide-loaded T2 cells
# T9 construct: Alanine mutant at position 8; also called TLI-A8
# [10] = molecular target: T10, 017-mut2 peptide (…)/HLA-A*02:01 complex on T2 cells (human); assay: flow cytometry, phage on peptide-loaded T2 cells
# T10 construct: Alanine mutant at position 2, the anchor position; the peptide may load poorly onto HLA-A2; also called EXT017-mut2
# [11] = molecular target: T11, 017-mut4 peptide (…)/HLA-A*02:01 complex on T2 cells (human); assay: flow cytometry, phage on peptide-loaded T2 cells
# T11 construct: Alanine mutant at position 4
# [12] = molecular target: T2, HLA-A*02:01 on T2 cells alone (no …); assay: flow cytometry, phage on T2 without peptide; secondary only 320, unstained 91.4
# [13] = molecular target: T6, Foxp3-7 peptide/HLA-A*02:01 complex on …; assay: flow cytometry, phage on T2 + Foxp3-7 peptide; secondary only 318, unstained 95.8
# T2+EW [14] = molecular target: T12, T2+EW (Homo sapiens, UniProt A*02:01); assay: flow cytometry, phage on T2 + EW peptide; secondary only 310, unstained 93
# T12 construct: on the surface of T2 cells; irrelevant control peptide; also called EW peptide/HLA-A*02:01 complex on T2 cells; T2 pulsed with EW peptide
# [15] = molecular target: T2, HLA-A*02:01 on T2 cells alone (no …); assay: flow cytometry, phage on T2 cells, no peptide
# [16] = molecular target: T6, Foxp3-7 peptide/HLA-A*02:01 complex on …; assay: flow cytometry, phage on T2 + Foxp3-7 peptide; secondary only 104, unstained 81.7
# T2+EW [17] = molecular target: T12, T2+EW; assay: flow cytometry, phage on T2 + EW peptide; secondary only 113, unstained 94.7
# [18] = molecular target: T2, HLA-A*02:01 on T2 cells alone (no …); assay: flow cytometry, phage on T2 without peptide; secondary only 100, unstained 99.5
# [19] = molecular target: T2, HLA-A*02:01 on T2 cells alone (no …); assay: flow cytometry, phage on T2 without peptide; remark: listed apart in the source
# [20] = molecular target: T6, Foxp3-7 peptide/HLA-A*02:01 complex on …; assay: flow cytometry, phage on T2 + Foxp3-7 peptide; secondary only 133, unstained 103
# [21] = molecular target: T2, HLA-A*02:01 on T2 cells alone (no …); assay: flow cytometry, phage on T2 cells
# [22] = molecular target: T2, HLA-A*02:01 on T2 cells alone (no …); assay: flow cytometry, phage on T2 without peptide; secondary only 121, unstained 106
# [23] = molecular target: T6, Foxp3-7 peptide/HLA-A*02:01 complex on …; assay: flow cytometry, phage on T2 + Foxp3-7 peptide; secondary only 116, unstained 93.8
# [24] = molecular target: T1, R3 (RHAMM-R3) peptide/HLA-A*02:01 …; assay: flow cytometry, phage on T2 + R3 peptide; secondary only 123, unstained 99.8
Binder,Median:FITC-A [1],MFI [3],MFI [4],MFI [5],MFI [6],MFI [7],MFI [8],MFI [9],MFI [10],MFI [11],Median:FITC-A [12],Median:FITC-A [13],Median:FITC-A (T2+EW [14]),MFI [15],Median:FITC-A [16],Median:FITC-A (T2+EW [17]),Median:FITC-A [18],Median:FITC-A [20],binding result [21],Median:FITC-A [22],further results
"EXT017-53 scFv phage clone (scFv, full-length scFv with His+HA tags; also called EXT017-53 phage) scFv: NFMLTQPHSVSESPGKTVTISCTRSSGSIASHYVQWYQQRPGSSPTTVIYENNQRPSGVPDRFSGSIDSSSNSASLTISGLKTEDEADYYCQSYDRSNHVVFGGGTKLTVLGSRGGGGSGGGGSGGGGSLEMAQVQLVQSGAEVKKPGASVKVSCKASGYTFTNYYIHWVRQAPGEGLEWMGIIRPSGGNTNYAQKFQGRVTMTRDTSTRTVYMELSSLRSEDTAVYYCARSWNSRDVDSWGQGTLVTVSSTSGQAGQHHHHHHGAYPYDVPDYAS",121,149,98.9,5780,25800,1100,98.5,12100,95.3,95.8,355,1050,346,89.5,2700,,,,,,binding result [2]: no binding
"Clone #24 (scFv, also called EXT017-24; EXT017-24 scFv phage clone) scFv (VL-linker-VH-His/HA tag): QAVLTQPPSVSAAPGQKVTISCSGSSSNIGNNYVSWYQQLPGTAPKLLIYDNNKRPSGLPDRFSGSKSGTSATLGITGLQTGDEADYYCGTWDSSLNAVVFGGGTQLTVLSSRGGGGSGGGGSGGGGSLEMAQVQLVQSGAEVKKPGASVKVSCKASGYTFTNYYIHWVRQAPGQGLEWMGIIRPSGGITNYAQKFQGRVTMTRDTSTSTVYMELSSLRSEDTAVYYCARSWSNKLSWYNDGWGQGTLVTVSSTSGQAGQHHHHHHGAYPYDVPDYAS",,,,,,,,,,,,,,,,141,146,1040,,,binding result [19]: no binding
"EXT017-17 scFv phage clone (scFv, fusion to the phage coat protein not described; also called EXT017-17 phage; phage clone #17) scFv: QSVLTQPPSVSGAPGQRVTISCTGSSSNIGAGYDVHWYQQLPGTAPKLLIYGNSNRPSGVPDRFSGSKSGTSASLAITGLQAEDEADYYCQSYDSSLSGYVFGTGTKVTVLGSRGGGGSGGGGSGGGGSLEMAEVQLVQSGAEVKKPGSSVKVSCKASGDTFSRYAISWVRQAPGQGLEWMGRIIPIFGTPNYAQKFQGRVTITADEFTSTAYMELSSLRSEDTAMYYCARSIYRYSEYDHWGQGTLVTVSSTSGQAGQHHHHHHGAYPYDVPDYAS",124,94.7,97.8,741,23600,7880,98.1,3590,99.8,103,,,,92.9,2590,144,151,1760,no binding,143,Median:FITC-A [23]: 745; Median:FITC-A [24]: 146
"EXT017-27 scFv phage clone (scFv, full-length scFv with His+HA tags; also called EXT017-27 phage; phage clone #27) scFv: QAVLTQPPSVSVAPGKTARLTCGGNNIGSESVHWYQQKPGQAPLLVVYDDDDRPSGIPERFSGSNSGNTATLTISRVEAGDEADYYCQVWDRSSDHWFFGGGTKLTVLGSRGGGGSGGGGSGGGGSLEMAQVQLVQSGAEVKKPGASVKVSCKASGYTFTNYYIHWVRQAPGQGLEWMGIIRPSGGITNYAQKFQGRVSMTRDTSTSTVYMELSSLRSEDTAVYYCARSWDYFASNDFWGQGTLVTVSSTSGQAGQHHHHHHGAYPYDVPDYAS",123,131,96.3,2260,21200,222,95.4,6400,98.2,99,355,1940,371,90.4,2820,,,,no binding,150,Median:FITC-A [23]: 658; Median:FITC-A [24]: 145
